Columns and labels:
H77 E1E2 mutant Q412A = H77 E1E2 mutant Q412A (HCV isolate H77, UniProt P27958 192-383; P27958 384-746); assay: ELISA, alanine mutant E1E2
H77 E1E2 mutant I414A = H77 E1E2 mutant I414A (HCV isolate H77, UniProt P27958 192-383; P27958 384-746); assay: ELISA, alanine mutant E1E2
H77 E1E2 mutant T416A = H77 E1E2 mutant T416A (HCV isolate H77, UniProt P27958 192-383; P27958 384-746); assay: ELISA, alanine mutant E1E2
H77 E1E2 mutant G418A = H77 E1E2 mutant G418A (HCV isolate H77, UniProt P27958 192-383; P27958 384-746); assay: ELISA, alanine mutant E1E2
H77 E1E2 mutant H421A = H77 E1E2 mutant H421A (HCV isolate H77, UniProt P27958 192-383; P27958 384-746); assay: ELISA, alanine mutant E1E2
H77 E1E2 mutant S424A = H77 E1E2 mutant S424A (HCV isolate H77, UniProt P27958 192-383; P27958 384-746); assay: ELISA, alanine mutant E1E2
H77 E1E2 mutant P484A = H77 E1E2 mutant P484A (HCV isolate H77, UniProt P27958 192-383; P27958 384-746); assay: ELISA, alanine mutant E1E2
H77 E1E2 mutant Y485A = H77 E1E2 mutant Y485A (HCV isolate H77, UniProt P27958 192-383; P27958 384-746); assay: ELISA, alanine mutant E1E2
H77 E1E2 mutant W487A = H77 E1E2 mutant W487A (HCV isolate H77, UniProt P27958 192-383; P27958 384-746); assay: ELISA, alanine mutant E1E2
H77 E1E2 mutant G523A = H77 E1E2 mutant G523A (HCV isolate H77, UniProt P27958 192-383; P27958 384-746); assay: ELISA, alanine mutant E1E2
H77 E1E2 mutant Y527A = H77 E1E2 mutant Y527A (HCV isolate H77, UniProt P27958 192-383; P27958 384-746); assay: ELISA, alanine mutant E1E2
H77 E1E2 mutant G530A = H77 E1E2 mutant G530A (HCV isolate H77, UniProt P27958 192-383; P27958 384-746); assay: ELISA, alanine mutant E1E2
H77 E1E2 mutant N532A = H77 E1E2 mutant N532A (HCV isolate H77, UniProt P27958 192-383; P27958 384-746); assay: ELISA, alanine mutant E1E2
H77 E1E2 mutant D533A = H77 E1E2 mutant D533A (HCV isolate H77, UniProt P27958 192-383; P27958 384-746); assay: ELISA, alanine mutant E1E2
H77 E1E2 mutant T534A = H77 E1E2 mutant T534A (HCV isolate H77, UniProt P27958 192-383; P27958 384-746); assay: ELISA, alanine mutant E1E2
H77 E1E2 mutant D535A = H77 E1E2 mutant D535A (HCV isolate H77, UniProt P27958 192-383; P27958 384-746); assay: ELISA, alanine mutant E1E2
H77 E1E2 mutant N540A = H77 E1E2 mutant N540A (HCV isolate H77, UniProt P27958 192-383; P27958 384-746); assay: ELISA, alanine mutant E1E2
H77 E1E2 mutant G547A = H77 E1E2 mutant G547A (HCV isolate H77, UniProt P27958 192-383; P27958 384-746); assay: ELISA, alanine mutant E1E2
H77 E1E2 mutant W549A = H77 E1E2 mutant W549A (HCV isolate H77, UniProt P27958 192-383; P27958 384-746); assay: ELISA, alanine mutant E1E2
[1] = molecular target: T1, vaccinia-expressed E1E2 complex, isolate HCV-1 (genotype 1a) (hepatitis C virus, isolate HCV-1, UniProt P26664 192-383; P26664 384-746); assay: competition ELISA on HCV-1 E1E2; competitor m3 (AR2A)
[2] = molecular target: T1, vaccinia-expressed E1E2 complex, …; assay: competition ELISA on HCV-1 E1E2; competitor m6 (AR3C)
[3] = molecular target: T1, vaccinia-expressed E1E2 complex, …; assay: competition ELISA on HCV-1 E1E2; competitor m34 (6/53)
[4] = molecular target: E1E2 complex of HCV isolate H77 (genotype 1a), wild type (HCV isolate H77, UniProt P27958 192-383; P27958 384-746); assay: competition ELISA on H77 E1E2; competitor m38 (Fab N2)
[5] = molecular target: T1, vaccinia-expressed E1E2 complex, …; assay: competition ELISA on HCV-1 E1E2; competitor m21 (CBH-5)
[6] = molecular target: T1, vaccinia-expressed E1E2 complex, …; assay: competition ELISA on HCV-1 E1E2; competitor m22 (CBH-7)
[7] = molecular target: T1, vaccinia-expressed E1E2 complex, …; assay: competition ELISA on HCV-1 E1E2; competitor m30 (7/16B)

B1: MAb AR3D (antibody, V domains shown)
VH: LEQSGAEVKKPGSSVKVSCKASGDTFRSYVITWARQAPGQGLEWMGAIIPFFGTTNLAQKFQGRVTITADESTKTVYMDLSSLRSDDTAVYYCAKAGDLSVGGVLAGGVPHLRHFDPWGQGTLVTVSS
VL: ELTQSPGTLSLSPGERATLSCRAGQTVASNSLAWYQHKPGQAPRLLIYGASIRASGIPDRFSGSGSGTDFTLTISRLEPEDFAVYYCQQYGLSSTFGQGTRLEIKR
notes: also called IgG1 of Fab L4
binding vs wild-type E1E2 (H77 E1E2 mutant Q412A): 44%
binding vs wild-type E1E2 (H77 E1E2 mutant I414A): 126%
binding vs wild-type E1E2 (H77 E1E2 mutant T416A): 90%
binding vs wild-type E1E2 (H77 E1E2 mutant G418A): 60%
binding vs wild-type E1E2 (H77 E1E2 mutant H421A): 87%
binding vs wild-type E1E2 (H77 E1E2 mutant S424A): 6%
binding vs wild-type E1E2 (H77 E1E2 mutant P484A): 90%
binding vs wild-type E1E2 (H77 E1E2 mutant Y485A): 145%
binding vs wild-type E1E2 (H77 E1E2 mutant W487A): 119%
binding vs wild-type E1E2 (H77 E1E2 mutant G523A): 48%
binding vs wild-type E1E2 (H77 E1E2 mutant Y527A): 119%
binding vs wild-type E1E2 (H77 E1E2 mutant G530A): 24%
binding vs wild-type E1E2 (H77 E1E2 mutant N532A): 159%
binding vs wild-type E1E2 (H77 E1E2 mutant D533A): 146%
binding vs wild-type E1E2 (H77 E1E2 mutant T534A): 181%
binding vs wild-type E1E2 (H77 E1E2 mutant D535A): 32%
binding vs wild-type E1E2 (H77 E1E2 mutant N540A): 56%
binding vs wild-type E1E2 (H77 E1E2 mutant G547A): 202%
binding vs wild-type E1E2 (H77 E1E2 mutant W549A): 274%
% residual binding [1]: 75%
% residual binding [2]: 13%
% residual binding [3]: 103%
% residual binding [4]: 98%
% residual binding [5]: 18%
% residual binding [6]: 33%
% residual binding [7]: 94%
